According to the supplement of paper PMC9170038:

Tests used:
[1] = tested on: MS2 coat protein; assay: apparent KD of MS2 coat protein; higher = weaker reporter binding; conditions: Eterna round: R107
Procedure: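 RNA-MaP round R107: designed RNA switches with theophylline, tryptophan, arginine or FMN aptamers are transcribed on-chip within common flanks. They are titrated with SNAP-549-labelled MS2 coat protein in RNA-MaP buffer (100 mM Tris pH 7.5, 80 mM KCl, 4 mM MgCl2), without ligand or with the indicated ligand. Median apparent KD per design.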

[2] = tested on: K4 kissing-loop RNA reporter; assay: apparent KD of K4 kissing-loop reporter; higher = weaker reporter binding; conditions: Eterna round: R107;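 note: bound reporter read as fluorescence of individual clusters on recovered sequencing chips by microscopy, with normalized cluster intensities fitted with a binding model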
Procedure: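 RNA-MaP round R107: designed RNA switches with theophylline, tryptophan, arginine or FMN aptamers are transcribed on-chip within common flanks. They are titrated with a labelled K4 kissing-loop RNA reporter in RNA-MaP buffer (100 mM Tris pH 7.5, 80 mM KCl, 4 mM MgCl2), without ligand or with the indicated ligand. Median apparent KD per design.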

[3] = input ligand: theophylline 20 uM
[4] = input ligand: theophylline 2 mM
[5] = input ligand: tryptophan 2.4 mM

| Sequence | apparent KD of MS2 coat protein ([1]; input ligand: arginine 13.2 mM) | apparent KD of MS2 coat protein ([1]; input ligand: none) | apparent KD of MS2 coat protein [1, 3] | apparent KD of MS2 coat protein [1, 4] | apparent KD of MS2 coat protein [1, 5] | apparent KD of K4 kissing-loop reporter ([2]; input ligand: FMN 200 uM) | apparent KD of K4 kissing-loop reporter ([2]; input ligand: arginine 13.2 mM) | apparent KD of K4 kissing-loop reporter ([2]; input ligand: none) | apparent KD of K4 kissing-loop reporter [2, 3] | apparent KD of K4 kissing-loop reporter [2, 5] |
| --- | --- | --- | --- | --- | --- | --- | --- | --- | --- | --- |
| AACGUAUACAGAAGGAGCGUGAUUUAUAUUACUCAUUCAUAUACAUGAGGAUCACCCAUGUCACAGGUAGGUCGCUGUAUUCGUA [JR_ExcArginiB_Sub021] | 76 nM | 153 nM | 165 nM | 157 nM | 108 nM | – | – | – | – | – |
| AAGAUAAGUACUGAUACCAGAGACAUGAGGAUCACCCAUGUCAAAUAAUAAUACCUCAGACUCCCUUGGCAGCAGGAUAAAUGAG [Exclusion Theophylline B GF1] | 10.9 nM | 11.7 nM | 19.9 nM | 19.2 nM | 12.1 nM | – | – | – | – | – |
| AAACGUUGCUCAGAUACCAGACAUGAGGAUCACCCAUGUACCAAGGUAACCGAAAGGCAUGUCCCUUGGCAGCUGAGCAACGAAA [MAT - Exclusion Theophlline B - Mod of Eli - D16] | 12.4 nM | – | 21.4 nM | – | 12.5 nM | – | – | – | – | – |
| GGUAUAUAGGCGGCCGCCACUGAUUUUCAUAUAUAUAUAACAUGAGGAUCACCCAUGUAGAUAUACAGGACCGGGCCUAUAUAUU [aaaC] | 16.1 nM | – | 17.7 nM | 16.4 nM | – | – | – | – | – | – |
| AUACAUGAGGAUCACCCAUGUCAUUCAGAAGGAGCGUCAUUUUAGACAGGUAGGUCGCUGUUAUUGGUAUUAUACUUUAUGUUUA [JR_ExcArginiA_Sub024] | 20.1 nM | 22.9 nM | 34.9 nM | 24.7 nM | 28.9 nM | – | – | – | – | – |
| AAUAUAAUAGACUCGUUUUAGUAUUUGGAACGAGGACCGGUACGGCCGCCACUCGUGAUUUACAUGAGGAUCACCCAUGUUAGCA [JR_SSTryptoA_Sub003] | 15.5 nM | – | 18.4 nM | 17.5 nM | – | – | – | – | – | – |
| UACAUAUUAUUUAACAUAAAUUUUACAGAAGGAGCGUGAUCAUUCACAGGUAGGUCGCUGAACUAGUGAUGUUAGUUUUAUUUUU [JR_Nu_ExcArginiA_Sub025] | – | – | – | – | – | 62.7 nM | 96.1 nM | 71.5 nM | 97 nM | 57.3 nM |
| UACAGGGAUAGUGAUGUUAUCCCAUGUGAUACCAGUGCCAUCCAACACCCUUGGCAGCAUACGGGCAGUGAUGUUGUUCUUGGUA [#16 K4 Theophylline A Exclusion] | – | – | – | – | – | 89.8 nM | 79.8 nM | 86 nM | 86.1 nM | 80.1 nM |
| UCGCCGCUCACGGCCGCCACUAAGCCCAAGACCAGAGAGUGAUGUUCUAUCCACGUUUCAAUUUUUAGGACCGGGUGAAAGGCGA [theeternabot_sameState_KL_Trp_B_14] | – | – | – | – | – | 779 nM | 411 nM | 729 nM | 625 nM | 618 nM |
| AAAUAAAGCAGUCACCCAGUGAUGUUGGAAGGAGCGUGCGAAAGCACAGGUAGGUCGCCGAUAAGGACAAAGUCCAGUGGCUGCA [#SwitchBubble 28 #K4Early] | – | – | – | – | – | 458 nM | 344 nM | 595 nM | 590 nM | 283 nM |
| GCACUCCAUCGGACGUAAGUGAUGUUUACCCGAGGACCGGUACGGCCGCCACUCGACCGUGCAUAACCAAAUCAAAUAGCUUCCG [theeternabot_exclusion_KL_Trp_A_31] | – | – | – | – | – | 143 nM | 127 nM | 138 nM | 120 nM | 221 nM |
| AAAAUAAAGGAGUGAUGUUCCAUAACGGAUACCAGCCACGAAAGUGGCCCUUGGCAGCUGUGCCAGUGGACGAAUAACGUCCACA [#OpenEnded 6 #StaticStem #K4Early] | – | – | – | – | – | 164 nM | 287 nM | 237 nM | 280 nM | 164 nM |
| UCCUGCAAUCUGCCACGAAAGUGGAUUGAUACCAGAGUCGAAAGACUCCCUUGGCAGCGAGUGAUGUUCGAAGCAGGUAAAUAAA | – | – | – | – | – | 99.4 nM | 149 nM | 124 nM | 160 nM | 91.7 nM |
| AAGCAGUUCUCAAAGAGUACUGCAGGACAGCAGGAUAUAGUGAUGUUGAGAAGGGCUGUCCCGUCUGCAUGAAACAUGCAGACGA [Simply curious] | – | – | – | – | – | 1350 nM | 688 nM | 808 nM | 1290 nM | 688 nM |
| AAGUACACGAUAGUGUACACCUAGUGAUGUUAGGAUAUGCAGAUAUGCAGAAGGAACAAGUCAUCUGACAAUAGUCGGAUGACAA [FmnAX 6 #OpenEnded #K4Early] | – | – | – | – | – | 577 nM | 75.5 nM | 109 nM | 110 nM | 98 nM |
| CAUUCUAUAUGCAGUGAUGUUGCAACUGAUACCAGUAUCGAAAGAUACCCUUGGCAGCGGAAAACCGCUACGUAAUUUAAGAAUG [Ex Theophylline A K4 22] | – | – | – | – | – | 375 nM | 445 nM | 489 nM | 523 nM | 327 nM |
| GCUAUGGUAGGAAGGAGCGCUUAUUUAUUUUUAAGAGUGAUGUUCGUUAGUAGAUAUUUAAAGCAGGUAGGUCGCCUACUAUAGC [Arginine B K4 14] | – | – | – | – | – | 85.8 nM | 124 nM | 84 nM | 120 nM | 52 nM |
| AGACUACCACACUGUCAAUAGACAGUGAGCUAGGAUAUGCUGAUAAGCAGAAGGAGUGAUGUUCCUCGGUAGUCAAUAAAAUAAU [FmnAX 13 G29+C67] | – | – | – | – | – | 373 nM | 357 nM | 364 nM | 503 nM | 378 nM |
| UGUGGAGAAUAUGAUACCAGCAGUGAGAGAGAGGAAGUAUAGUGAUGUUAUAUGAGAGAAUGCCCUUGGCAGCAUAUGUAGAAGG [SSTheophylB.F] | – | – | – | – | – | 133 nM | 154 nM | 107 nM | 93.6 nM | 128 nM |
| AGACUACCACACUGUCAAUAGACAGUGAACUAGGAUAUGCUGAUAAGCAGAAGGAGUGAUGUUCCUUGGUAGUCAAUAAAAUAAU [FmnAX 13 U67] | – | – | – | – | – | 308 nM | 270 nM | 298 nM | 330 nM | 289 nM |
